Legend:
4T1 mammary carcinoma = experiment: Therapeutic efficacy and toxicity in 4T1 bearing BALB/c mice; assay type: in vivo, mouse
Procedure: FIGS. 7A-7C. TIMC-specific aptamers increase doxorubicin therapeutic index. […] Treatment was repeated 2 and 6 days later. […] Weight loss as measure of toxicity is reported. […] Survival was monitored.
Aptamer-Doxorubicin treatment: Aptamer-doxorubicin was prepared by making DNA template with the appropriate aptamer followed by a GC-rich primer sequence downstream (GC rich Sul3′, FIG. 11. From this template, RNA was transcribed and purified as described above. Doxorubicin (Sigma) was mixed with the RNA sequence as needed. Doxil (ALZA corporation) was purchased through the University of Miami pharmacy.
BALB/c mice were injected IV with the 4T1 luciferase thy1.1 tumor cell line. Treatment was started when tumors reached 5 mm of diameter and repeated 2 and 6 days later. Tumor growth and mice weight was reported. Mice were evaluated at least 3 times a week and humanely euthanized when tumor size index reached 150 mm^2 or if they lose >20% of initial weight due to chemotherapy or tumor growth in compliance with the IACUC policy and animal protocol. Data are expressed as tumor size index defined as the product of the main diameter with the perpendicular one.
Next, the therapeutic efficacies of doxorubicin delivered by TIMC-specific aptamers was compared by PEGylated liposomes (Doxil, the first clinically available nanoparticle that became the gold standard for doxorubicin treatment (34, 35)), and as unconjugated molecules. Briefly, 4T1 bearing BALB/c mice were treated with unconjugated DOX at dose high, or low dose, or with low doses of DOX conjugated to the TIMC-specific aptamer, or with Doxil (low dose—0.35 mg/kg). Treatment was repeated 2 and 6 days later. As additional controls, mice were treated with unconjugated aptamers, irrelevant aptamers conjugated with doxorubicin, or left untreated.

[1] = tested on: tumor infiltrating myeloid cells (4T1 tumor); experiment: Flow cytometry of Cy3-labelled monoclonal aptamers on single cell suspensions from tumor and spleen of 4T1 bearing mice; assay type: cell-based, mouse; conditions: tumor and spleen of 4T1 challenged mice; splenic MDSCs and CD11b- cells p>0.05
Excerpt: FIGS. 2A-C. […] FIG. 2A) Single cell suspensions from spleens and tumors of mice pooled from 3 mice bearing the 4T1 tumor (0.5 cm in diameter) were labelled with antibodies against CD11b, Ly6C, Ly6G and the 15 Cy3-labelled monoclonal aptamers identified by APTANI. Data derived from n=5 biological replica and derived from n=2 independent experiments. Aptamers 3 (SEQ ID NO: 3), 6 (SEQ ID NO: 6), 11 (SEQ ID NO: 11), and 14 (SEQ ID NO: 14) were chosen for further analysis and are in bold. *=P<0.001 by one-way ANOVA and post-hoc Holm-Sidak comparisons versus irrelevant aptamer. […] FIG. 2B) Secondary structure of aptamers 3 (SEQ ID NO: 3), 6 (SEQ ID NO: 6), 11 (SEQ ID NO: 11), and 14 (SEQ ID NO: 14). Binding motifs identified by APTANI are underlined in black. Fluorinated nucleotides are highlighted in gray. FIG. 2C) An equimolar mixture of the aptamers increases the specificity for tumor infiltrating myeloid cells. Pooled single cell suspension of tumor or spleen from 4T1 bearing mice were labeled with aptamers 3 (SEQ ID NO: 3), 6 (SEQ ID NO: 6), 11 (SEQ ID NO: 11), and 14 (SEQ ID NO: 14), or equimolar mixtures of each aptamer and analyzed by FACS. Data derived from n=3 independent experiments.
(§1) Flow cytometry: Aptamers were labeled with Cy3 using the Silencer siRNA Labeling Kit—Cy3 (Ambion) and 37 pmoles were used to label 5×10^6 cells unless otherwise specified. In some experiments biotinylated aptamers were labelled with streptavidin conjugated with Alexa Fluor 647 or Alexa Fluor 750 and purified from unbound aptamer by Ultra-4 centrifugal filters, […] (Millipore).
(§2) Dead cells were excluded by the analysis by using 4′,6′-diamidino-2-phenylindole (DAPI; Sigma) or Live/Dead dye (Invitrogen). Samples were read on a LSR2 equipped with 405 nm, 488 nm, 532 nm, and 635 nm lasers (BD Bioscience). Data were analyzed using FCS6 express software (Denovo-Software).
These 15 aptamers were tested by flow cytometry against single cell suspensions from tumor and spleen of mice challenged with the 4T1 tumor (FIG. 2A).
Next, whether an equimolar mixture of aptamers 3, 6, 11 and 14 was more efficient in recognizing TIMC as compared to each individual aptamer was evaluated.

[2] = tested on: TIMC from 4T1, CT26, RENCA, B16LU8, MCA203, E0771 tumors; experiment: Staining of single cell suspensions from tumor, bone marrow, spleen and lungs in multiple mouse tumor models; assay type: cell-based; conditions: BALB/c (4T1, CT26, RENCA) and C57Bl/6 (B16LU8, MCA203, E0771) tumor models
Excerpt: as §1, §2
The binding properties of monoclonal RNA aptamers 3, 6, 11 and 14 were evaluated in other tumor models. Aptamers 3, 6, 11, or 14 single cell suspensions were stained from tumor, bone marrow, spleen, and lungs of BALB/c mice bearing the 4T1 mammary carcinoma, the CT26 colon carcinoma, or the RENCA renal carcinoma. Similar analysis was performed on single cell suspensions from C57Bl/6 mice bearing B16LU8 melanoma, MCA203 fibrosarcoma or E0771 mammary carcinoma.

[3] = tested on: 4T1 tumors and tissues arrays from naïve mice; experiment: Immunofluorescence microscopy on 4T1 tumors and tissues arrays from naïve mice; set-up: species or system mouse
Procedure: Immunofluorescence microscopy and Image cytometry: Fresh frozen tissue and tissues microarrays (AMSBIO) were fixed in 10% neutral-buffered formalin (BDH) for 15′ at RT, incubated with dextran sulfate sodium/PBS (1:2 m/V—Pharmacia biotech) for 30′ and washed with PBS. Tissues were then stained with Cy3-labelled aptamer (10 ug/ml) in PBS for 30′, masked with 2% BSA, and counterstained with antibodies and/or DAPI.
Specificity was further evaluated by immunofluorescence microscopy using 4T1 tumors and tissues arrays from naïve mice.

[4] = Aptamer-based immunoprecipitation and mass spectrometry (target identification); conditions: immunoprecipitation, mass spectrometry
Procedure: (§3) FIG. 4A-4E. Characteristics of aptamers that preferentially recognize tumor infiltrating myeloid cells. FIG. 4A) Affinity of the aptamers for IL4 treated MSC2 cells was determined by FACS. Putative targets (ANXA4 and VIM) were identified via aptamer-based immunoprecipitation, SDS page, and mass spec analysis. Kds against ligands was determined by FACS against recombinant protein conjugated to epoxy beads. FIG. 4B) Epoxy beads conjugated with ANXA4 or irrelevant protein were stained with Cy3-labelled aptamer 3 or irrelevant aptamer and analyzed by FACS. FIG. 4C) Epoxy beads conjugated with vimentin or irrelevant protein were stained with Cy3-labelled aptamer 11 or irrelevant aptamer and analyzed by FACS. FIG. 4D) ANXA4 competitive assay. 5×10^5 IL4 treated MSC2 were stained with aptamer 3 in the presence or in the absence of recombinant ANXA4. FIG. 4E) MCS2 cells were transfected via the 4PD nanoparticle with shRNA against vimentin or with a scrambled shRNA. 4 days later cells were stained with Cy3-labelled aptamer 11 and DAPI. Pa=One-way ANOVA p value. Data derived from n=2 independent experiments.
The specificity of aptamer 3 for ANXA4 and aptamer 11 for vimentin were tested by competitive experiments (FIG. 4D) and with validated shRNA (29) (FIG. 4E), respectively.

annexin A4 (ANXA4) = target: T1, annexin A4 (ANXA4) (Mus musculus, UniProt P97429); experiment: FACS of epoxy beads conjugated with recombinant ANXA4; assay type: binding; conditions: beads loaded with relevant or irrelevant recombinant proteins
T1 construct: purchased myBiosource
T1 sequence (P97429 1-319): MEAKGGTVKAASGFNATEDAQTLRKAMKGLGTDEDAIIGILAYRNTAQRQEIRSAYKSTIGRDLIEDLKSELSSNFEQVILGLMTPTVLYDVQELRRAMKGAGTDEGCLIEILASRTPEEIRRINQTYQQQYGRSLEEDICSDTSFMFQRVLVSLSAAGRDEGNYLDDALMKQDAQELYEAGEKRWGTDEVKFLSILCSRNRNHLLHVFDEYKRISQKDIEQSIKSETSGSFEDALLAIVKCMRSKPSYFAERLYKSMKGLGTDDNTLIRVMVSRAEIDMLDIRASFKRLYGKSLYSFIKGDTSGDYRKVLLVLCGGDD
Procedure: as §3
(§4) FIG. 8A and FIG. 8B. Affinity of aptamers #3 (SEQ ID NO: 3), #6 (SEQ ID NO: 6), #11 (SEQ ID NO: 11) and #14 (SEQ ID NO: 14) for IL4 treated MSC2 or their putative ligand. […] Binding was evaluated by FACS. […] Binding was evaluated by FACS. […]

vimentin (VIM) = target: T2, vimentin (VIM) (Mus musculus, UniProt P20152); experiment: FACS of epoxy beads conjugated with recombinant vimentin; assay type: binding; conditions: beads loaded with relevant or irrelevant recombinant proteins
T2 construct: purchased myBiosource
T2 sequence (P20152 whole entry): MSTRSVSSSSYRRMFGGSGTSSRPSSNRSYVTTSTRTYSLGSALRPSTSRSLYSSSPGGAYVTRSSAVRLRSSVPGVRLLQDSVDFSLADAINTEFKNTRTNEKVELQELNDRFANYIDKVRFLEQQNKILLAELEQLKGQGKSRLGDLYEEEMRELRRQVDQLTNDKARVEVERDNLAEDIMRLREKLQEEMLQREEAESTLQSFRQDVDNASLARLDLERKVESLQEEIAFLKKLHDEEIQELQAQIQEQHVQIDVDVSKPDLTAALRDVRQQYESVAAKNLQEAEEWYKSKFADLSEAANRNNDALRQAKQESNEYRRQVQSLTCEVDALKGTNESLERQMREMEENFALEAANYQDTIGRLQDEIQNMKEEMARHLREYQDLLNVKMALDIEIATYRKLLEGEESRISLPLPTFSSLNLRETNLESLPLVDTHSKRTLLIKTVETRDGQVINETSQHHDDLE
Procedure: as §3, §4

## COc1cccc2c1C(=O)c1c(O)c3c(c(O)c1C2=O)C[C@@](O)(C(=O)CO)C[C@@H]3O[C@H]1C[C@H](N)[C@H](O)[C@H](C)O1 [free doxorubicin, doxorubicin]
4T1 mammary carcinoma; free DOX high dose 3.5 mg/kg, DOX-aptamer 0.35 mg/kg
  toxicity (body weight loss): significant body weight loss
4T1 mammary carcinoma; high doses of free doxorubicin
  treatment related mortality: 15%
4T1 mammary carcinoma; i.v., repeated 2 and 6 days later, free DOX high dose 3.5 mg/kg, Doxil and DOX-aptamer low dose 0.35 mg/kg
  anti-tumor effect: No significant anti-tumor effect

B1: aptamer 3: 2'Fluoro-RNA aptamer, SEQ ID NO: 3, specific for tumor infiltrating myeloid cells; ligand ANXA4 (nucleic acid)
chain: GGAGGACGAUGCGGAUUACCAACUUGAACGCCGAGAGUGUGGUCACGUGUUCUGCAGACGACUCGCUGAGGAUCCGAGA
modifications: 2'-fluoro modified RNA, modified positions not given here, Cy3-labelled for binding assays
notes: ligand ANXA4
[1]
  specificity for tumor infiltrating vs splenic myeloid cells: specific for tumor infiltrating myeloid cells
[2]
  recognition of TIMC: able to recognize TIMC
[3]
  staining of tissues from naïve mice: recognized hepatocytes at low intensity
[4]
  putative target: annexin A4 (ANXA4 isoform X1 P97495)
Annexin A4 (ANXA4)
  specificity for annexin protein: confirmed the specificity

B2: aptamer 6: 2'Fluoro-RNA aptamer, SEQ ID NO: 6, specific for tumor infiltrating myeloid cells (nucleic acid)
chain: GGAGGACGAUGCGGCAGGUGCGGGAUCUAAUGCGUAGACAGCCAUAUACUGACACAGACGACUCGCUGAGGAUCCGAGA
modifications: 2'-fluoro modified RNA, modified positions not given here, Cy3-labelled for binding assays
[1]
  specificity for tumor infiltrating vs splenic myeloid cells: specific for tumor infiltrating myeloid cells
[2]
  recognition of TIMC: able to recognize TIMC
[3]
  staining of tissues from naïve mice: showed binding for epithelial cells in the uterus and low binding for pancreatic acinar tissue
[4]
  putative target: No targets have been identified

B3: aptamer 11: 2'Fluoro-RNA aptamer, SEQ ID NO: 11, specific for tumor infiltrating myeloid cells; ligand vimentin (nucleic acid)
chain: GGAGGACGAUGCGGGGAAGCAACACUUAGUCGCGAUUGAUACGUGCGCAGUCAUCAGACGACUCGCUGAGGAUCCGAGA
modifications: 2'-fluoro modified RNA, modified positions not given here, Cy3-labelled for binding assays
notes: ligand vimentin
[1]
  specificity for tumor infiltrating vs splenic myeloid cells: specific for tumor infiltrating myeloid cells
[2]
  recognition of TIMC: able to recognize TIMC
[4]
  putative target: vimentin (VIM P20152)
Vimentin (VIM)
  specificity for vimentin protein: confirmed the specificity

B4: aptamer 14: 2'Fluoro-RNA aptamer, SEQ ID NO: 14, specific for tumor infiltrating myeloid cells (nucleic acid)
chain: GGAGGACGAUGCGGUGUACACUGAUUGCCUUUGUGUUAUGAGCGACAGAUCUGCCAGACGACUCGCUGAGGAUCCGAGA
modifications: 2'-fluoro modified RNA, modified positions not given here, Cy3-labelled for binding assays
[1]
  specificity for tumor infiltrating vs splenic myeloid cells: specific for tumor infiltrating myeloid cells
[2]
  recognition of TIMC: able to recognize TIMC
[3]
  staining of tissues from naïve mice: recognized intestinal villi and seems to show a nuclear staining of cerebellum, pancreatic acinar tissue, stomach and spleen
[4]
  putative target: No targets have been identified

Source: patent US12648996B2, “RNA aptamers and uses thereof” (UNIVERSITY OF MIAMI, priority 2019, dated 2026)
